Measured values from patent US20170355773A1.
Where a chain is given by its changes, count along the chain named.

B1: 42G2 (scFv mutant of W3072-z4C12) (scFv, V domains shown, not shown: small tags and cut ends)
VH: EVQLVESGGGLSQPGNSLQLSCEASGFTFSNHDLNWVRQAPGKGLEWVAYISSASGLISYADAVRGRFTISRDNAKNSLFLQMNNLKSEDTAMYYCARDPPYSGLYALDFWGQGTQVTVSS
VL: QPVLTQSPSASASLSGSVKLTCTLSSELSWYTIVWYQQRPDKAPKYVMYLKSDGSHSKGDGIPDRFSGSSSGAHRYLSISNVQSEDDATYFCGAGYTLAGQYGWVFGSGTKVTVL
B2: 27A3 (scFv mutant of W3072-z4C12) (scFv, V domains shown, not shown: small tags and cut ends)
VH: B1 VH with S103T
VL: B1 VL with W30S
B3: 42F9 (scFv mutant of W3072-z4C12) (scFv, V domains shown, not shown: small tags and cut ends)
VH: B1 VH
VL: B1 VL with W30F
B4: 66B8 (scFv mutant of W3072-z4C12) (scFv, V domains shown, not shown: small tags and cut ends)
VH: B1 VH
VL: B1 VL with W30S, G100N
B5: 43F11 (scFv mutant of W3072-z4C12) (scFv, V domains shown, not shown: small tags and cut ends)
VH: B1 VH
VL: B1 VL with W30S, Y31F
B6: 42H8 (scFv mutant of W3072-z4C12) (scFv, V domains shown, not shown: small tags and cut ends)
VH: B1 VH
VL: B1 VL with W30Y

target: TNFRSF25-Fc protein (UniProt Q93038); test: capture ELISA, scFv, against the wild-type

Row | Binder | fold increase in ELISA signal [fold]
1 | B1 | > 10

target: TNFRSF25-Fc protein (UniProt Q93038); test: single point capture ELISA: scFv on anti-c-myc, biotinylated antigen, streptavidin-HRP

Row | Binder | OD450
2 | B2 | 1.61
3 | B3 | 2.33
4 | B1 | 3.19
5 | B4 | 0.4
6 | B5 | 1.6
7 | B6 | 1.67
